Experimental data: publication PMC11429998 (bioRxiv, 2024)

B1: PseCAST TniQ (natural protein)
chain: MAFLFSPKIGPFFDESLESYLLRVVSENFFDSYEGLSLAIREELHELDFEAHGAFPIDLKRLNVYHAKHNSHFRMRALGLLETLLDLPRYELQKLALLKSDIKFNSSAALYKGGVDIPQRFICYHTEEAVDSIPVCPQCLAEEAYIKQSWHIKWVNACAKHQCTLVHKCPECCAPINYIENESITHCSCGFELSCGSTSPVNTLSIDHLNKLLNKSELDDNNPLFKNTTLTERFAALLWYQERYSKEETFCLDDVVNYFNGWPVVFYKELDELSKNAAMKLIDLFNKTEFKFIFGNAILSCPNTQKQREPHFIYSTLLDYLATLVESNPKTKKPNVADLLVSVLEAATLLSISIEQVYRLYQDGILQTAFRHKMNQRINPYKGVFFLRHVIEYKTSFGNDKARMYLSAW

How the values were obtained:
[1] = target: PseCAST Cas7 (Pseudoalteromonas); test: cryo-EM structure
cryo-EM structure = target: the molecule itself; test: cryo-EM structure

| Molecule | stoichiometry N [1] | stoichiometry N (cryo-EM structure) |
| --- | --- | --- |
| PseCAST Cas7 (natural protein) | 6 | – |
| B1 | – | 2 |
